From PMC2937569 (Biochemistry, 2010)
Where a chain is given by its changes, count along the chain named. In names and notes the source's numbering stands.

B1: wild-type (WT) RDS (retinal degeneration slow; Peripherin/rds), recombinant in COS-1 cells (natural protein, murine, UniProt P15499 1-346, looked up)
chain: MALLKVKFDQKKRVKLAQGLWLMNWLSVLAGIVLFSLGLFLKIELRKRSEVMNNSESHFVPNSLIGVGVLSCVFNSLAGKICYDALDPAKYAKWKPWLKPYLAVCIFFNVILFLVALCCFLLRGSLESTLAYGLKNGMKYYRDTDTPGRCFMKKTIDMLQIEFKCCGNNGFRDWFEIQWISNRYLDFSSKEVKDRIKSNVDGRYLVDGVPFSCCNPSSPRPCIQYQLTNNSAHYSYDHQTEELNLWLRGCRAALLNYYSSLMNSMGVVTLLVWLFEVSITAGLRYLHTALESVSNPEDPECESEGWLLEKSVPETWKAFLESFKKLGKSNQVEAEGADAGPAPEAG
B2: N244K RDS, recombinant in COS-1 cells (natural protein, murine, UniProt P15499 1-346, looked up)
chain: B1 chain with N244K
B3: N244H RDS, recombinant in COS-1 cells (natural protein, murine, UniProt P15499 1-346, looked up)
chain: B1 chain with N244H

Tests used:
[1] = target: the molecule itself; experiment: velocity sedimentation on a sucrose gradient
[2] = target: the molecule itself; experiment: non-reducing SDS-PAGE/Western blot

Protein | stoichiometry N [1] | stoichiometry N [2]
B1 | 4 | 2
B2 | 4 | 
B3 | 4 | 2
